According to paper doi:10.1101/2021.04.15.439997:

Tests used:
[1] = target: Strep-tagged glucose-6-phosphate dehydrogenase (G6PDH) from Synechocystis (Synechocystis sp. PCC 6803) (UniProt P73411); test: SEC-MALS
[2] = target: Strep-tagged glucose-6-phosphate dehydrogenase (G6PDH) from Synechocystis (Synechocystis sp. PCC 6803) (UniProt P73411)

Strep-tagged glucose-6-phosphate dehydrogenase (G6PDH) from Synechocystis (Synechocystis sp. PCC 6803), sequence (P73411 whole entry): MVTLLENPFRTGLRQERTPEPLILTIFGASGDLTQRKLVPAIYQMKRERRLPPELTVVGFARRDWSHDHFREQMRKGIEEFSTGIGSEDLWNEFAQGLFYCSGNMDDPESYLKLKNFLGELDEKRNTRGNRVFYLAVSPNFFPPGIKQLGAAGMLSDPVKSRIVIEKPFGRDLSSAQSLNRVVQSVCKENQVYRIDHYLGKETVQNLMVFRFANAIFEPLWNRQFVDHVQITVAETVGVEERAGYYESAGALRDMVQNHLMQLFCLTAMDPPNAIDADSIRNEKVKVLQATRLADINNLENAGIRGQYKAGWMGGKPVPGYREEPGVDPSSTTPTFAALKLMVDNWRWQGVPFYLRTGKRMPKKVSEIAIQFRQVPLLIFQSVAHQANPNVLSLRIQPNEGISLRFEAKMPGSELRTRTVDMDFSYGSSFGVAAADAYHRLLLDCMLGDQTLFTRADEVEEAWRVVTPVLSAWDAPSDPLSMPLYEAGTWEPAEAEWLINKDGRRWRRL

stoichiometry N (subunits of OpcA per G6PDH tetramer) [1]: 4
G6PDH activity after pre-incubation of OpcA with DTTred, compared to the control [2]: 30%
G6PDH activity after pre-incubation of OpcA with Synechocystis thioredoxin TxrA [2]: 10%
G6PDH enzyme kinetics: substrate affinity with OpcA added [2]: 6 fold
Substance: Strep-tagged oxidative pentose phosphate cycle protein (OpcA) from Synechocystis (natural protein)
